According to patent US20200024322A1 (Eli Lilly, published 2020):
Numbering of substitutions follows the chain as printed. Numbered stars: 1 amine (or outer) side, 2 acyl side, 3 side chain; on linkers, the order of the positions; unused ones are H or OH. Square brackets hold non-standard residues; d marks the D form. Side chains are listed from the residue outwards. Ends that are not written are not given here. * marks the point of attachment. C18 diacid = O=C(O)CCCCCCCCCCCCCCCCC(=O)*; γGlu = O=C(O)[C@H](CCC(=O)[*:2])N[*:1]; AEEA = NCCOCCOCC(=O)O; Aib = CC(C)(N)C(=O)O

B1: Example 296 (peptide)
peptide: Y[Aib]EGTFTSDYSILLDKK([AEEA-AEEA-γGlu-C18 diacid])AQKAFIEYLIEGGPSSG-NH2
modifications: N-terminus assumed
SMILES: CC[C@H](C)[C@H](NC(=O)[C@H](CC(C)C)NC(=O)[C@H](Cc1ccc(O)cc1)NC(=O)[C@H](CCC(=O)O)NC(=O)[C@@H](NC(=O)[C@H](Cc1ccccc1)NC(=O)[C@H](C)NC(=O)[C@H](CCCCN)NC(=O)[C@H](CCC(N)=O)NC(=O)[C@H](C)NC(=O)[C@H](CCCCNC(=O)COCCOCCNC(=O)COCCOCCNC(=O)CC[C@H](NC(=O)CCCCCCCCCCCCCCCCC(=O)O)C(=O)O)NC(=O)[C@H](CCCCN)NC(=O)[C@H](CC(=O)O)NC(=O)[C@H](CC(C)C)NC(=O)[C@H](CC(C)C)NC(=O)[C@@H](NC(=O)[C@H](CO)NC(=O)[C@H](Cc1ccc(O)cc1)NC(=O)[C@H](CC(=O)O)NC(=O)[C@H](CO)NC(=O)[C@@H](NC(=O)[C@H](Cc1ccccc1)NC(=O)[C@@H](NC(=O)CNC(=O)[C@H](CCC(=O)O)NC(=O)C(C)(C)NC(=O)[C@@H](N)Cc1ccc(O)cc1)[C@@H](C)O)[C@@H](C)O)[C@@H](C)CC)[C@@H](C)CC)C(=O)N[C@@H](CCC(=O)O)C(=O)NCC(=O)NCC(=O)N1CCC[C@H]1C(=O)N[C@@H](CO)C(=O)N[C@@H](CO)C(=O)NCC(N)=O
B2: Example 295 (peptide)
peptide: Y[Aib]EGTFTSDYSILLDKK([AEEA-AEEA-γGlu-C18 diacid])AQHAFIEYLIEGG-NH2
modifications: N-terminus assumed
SMILES: CC[C@H](C)[C@H](NC(=O)[C@H](CC(C)C)NC(=O)[C@H](Cc1ccc(O)cc1)NC(=O)[C@H](CCC(=O)O)NC(=O)[C@@H](NC(=O)[C@H](Cc1ccccc1)NC(=O)[C@H](C)NC(=O)[C@H](Cc1c[nH]cn1)NC(=O)[C@H](CCC(N)=O)NC(=O)[C@H](C)NC(=O)[C@H](CCCCNC(=O)COCCOCCNC(=O)COCCOCCNC(=O)CC[C@H](NC(=O)CCCCCCCCCCCCCCCCC(=O)O)C(=O)O)NC(=O)[C@H](CCCCN)NC(=O)[C@H](CC(=O)O)NC(=O)[C@H](CC(C)C)NC(=O)[C@H](CC(C)C)NC(=O)[C@@H](NC(=O)[C@H](CO)NC(=O)[C@H](Cc1ccc(O)cc1)NC(=O)[C@H](CC(=O)O)NC(=O)[C@H](CO)NC(=O)[C@@H](NC(=O)[C@H](Cc1ccccc1)NC(=O)[C@@H](NC(=O)CNC(=O)[C@H](CCC(=O)O)NC(=O)C(C)(C)NC(=O)[C@@H](N)Cc1ccc(O)cc1)[C@@H](C)O)[C@@H](C)O)[C@@H](C)CC)[C@@H](C)CC)C(=O)N[C@@H](CCC(=O)O)C(=O)NCC(=O)NCC(N)=O
B3: Example 213 (peptide)
peptide: YXEGTXTSDYSIXLDEKAQXEFIXYLIEGGPSSGAPPPS
modifications: Aib2; αMeF6; αMeL13; K17((2-[2-(2-Amino-ethoxy)-ethoxy]-acetyl)2-(γ-Glu)-CO-(CH2)16-CO2H); Aib20; D-Glu24; C-terminal NH2
B4: Example 343 (peptide)
peptide: B3 peptide with X6F, E21A, E28A
modifications: Aib2; αMeL13; K17((2-[2-(2-Amino-ethoxy)-ethoxy]-acetyl)2-(γ-Glu)-CO-(CH2)18-CO2H); Aib20; D-Glu24; C-terminal NH2
B5: Example 344 (peptide)
peptide: B3 peptide with X6F, E21D, X24E, E28A
modifications: Aib2; αMeL13; K17((2-[2-(2-Amino-ethoxy)-ethoxy]-acetyl)2-(γ-Glu)-CO-(CH2)18-CO2H); Aib20; C-terminal NH2
B6: Example 289 (peptide)
peptide: B3 peptide with X6F, E16K, X24E, E28A
modifications: Aib2; αMeL13; K17((2-[2-(2-Amino-ethoxy)-ethoxy]-acetyl)2-(γ-Glu)-CO-(CH2)18-CO2H); Aib20; C-terminal NH2
notes: also called GG-731
B7: Example 342 (peptide)
peptide: B3 peptide with Y1X, X6F, X24E, E28A
modifications: D-Tyr1; Aib2; αMeL13; K17((2-[2-(2-Amino-ethoxy)-ethoxy]-acetyl)2-(γ-Glu)-CO-(CH2)18-CO2H); Aib20; C-terminal NH2
B8: Example 212 (peptide)
peptide: B3 peptide with E16K
modifications: Aib2; αMeF(2F)6; αMeL13; K17((2-[2-(2-Amino-ethoxy)-ethoxy]-acetyl)2-(γ-Glu)-CO-(CH2)18-CO2H); Aib20; D-Glu24; C-terminal NH2
B9: Example 231 (peptide)
peptide: B3 peptide with E16K
modifications: Aib2; αMeF(2F)6; αMeL13; K17((2-[2-(2-Amino-ethoxy)-ethoxy]-acetyl)2-(γ-Glu)-CO-(CH2)16-CO2H); Aib20; D-Glu24; C-terminal NH2
B10: Example 230 (peptide)
peptide: B3 peptide with E16H
modifications: Aib2; αMeF(2F)6; αMeL13; K17((2-[2-(2-Amino-ethoxy)-ethoxy]-acetyl)2-(γ-Glu)-CO-(CH2)18-CO2H); Aib20; D-Glu24; C-terminal NH2
B11: Example 338 (peptide)
peptide: FXEGTFTSDYSIXLDKKAQXEFIEYLIAGGPSSGAPPPS
modifications: Aib2; αMeL13; K17((2-[2-(2-Amino-ethoxy)-ethoxy]-acetyl)2-(γ-Glu)-CO-(CH2)18-CO2H); Aib20; C-terminal NH2
B12: Example 328 (peptide)
peptide: B11 peptide with E21A, A28E, G29A
modifications: Aib2; αMeL13; K17((2-[2-(2-Amino-ethoxy)-ethoxy]-acetyl)2-(γ-Glu)-CO-(CH2)16-CO2H); Aib20; C-terminal NH2
B13: Example 331 (peptide)
peptide: B11 peptide with F1Y, K16E
modifications: Aib2; αMeL13; K17((2-[2-(2-Amino-ethoxy)-ethoxy]-acetyl)2-(γ-Glu)-CO-(CH2)18-CO2H); Aib20; C-terminal NH2

How the values were obtained:
human GIP receptor = biological target: T1, human GIP receptor (human, UniProt P48546 22-466); experiment: [125I]-GIP competition SPA, hGIPR membranes
T1 construct: whole, on cells; also called hGIPR; hGIP-R
T1 sequence (looked up): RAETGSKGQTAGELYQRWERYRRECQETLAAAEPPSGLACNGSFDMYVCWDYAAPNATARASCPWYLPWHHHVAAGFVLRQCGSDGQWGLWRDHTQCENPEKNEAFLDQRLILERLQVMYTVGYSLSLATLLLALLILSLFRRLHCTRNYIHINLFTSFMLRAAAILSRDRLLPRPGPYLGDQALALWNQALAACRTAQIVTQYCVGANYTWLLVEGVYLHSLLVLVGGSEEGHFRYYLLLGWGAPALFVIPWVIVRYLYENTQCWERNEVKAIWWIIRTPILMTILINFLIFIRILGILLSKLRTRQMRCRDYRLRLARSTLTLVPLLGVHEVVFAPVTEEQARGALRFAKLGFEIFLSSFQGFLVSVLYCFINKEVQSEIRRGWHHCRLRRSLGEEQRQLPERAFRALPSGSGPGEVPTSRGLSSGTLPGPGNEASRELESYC
Method: The binding buffer contains 25 mM HEPES, pH 7.4, 2.5 mM CaCl₂, 1 mM MgCl₂, 0.1% (w/v) bacitracin, 0.003% (w/v) TWEEN®-20, and Roche Complete™ Protease Inhibitors without EDTA. […] Plates are sealed and mixed on a plate shaker (setting 6) for 1 minute and read with a PerkinElmer Trilux MicroBeta® scintillation counter after 2.5 to 12 hours of incubation/settling time at room temperature.
(§1) Data are analyzed using four-parameter (curve maximum, curve minimum, IC₅₀, Hill slope) nonlinear regression routines (Genedata Screener, version 12.0.4, Genedata AG, Basal, Switzerland). […] Values for Kᵢ are reported as the geometric mean, with error expressed as the standard error of the mean (SEM) and n is equal to the number of independent replicates (determined in assays performed on different days). Geometric Means are calculated as follows: […]

human GLP-1 receptor = biological target: T2, human GLP-1 receptor (human, UniProt P43220 24-463); experiment: [125I]-GLP-1 competition SPA, hGLP-1R membranes
T2 construct: whole, on cells; also called hGLP-1R; hGLP1R
Method: The binding buffer contains 25 mM HEPES, pH 7.4, 2.5 mM CaCl₂, 1 mM MgCl₂, 0.1% (w/v) bacitracin, 0.003% (w/v) TWEEN®-20, and Roche Complete™ Protease Inhibitors without EDTA.
as §1

human glucagon receptor = biological target: T3, human glucagon receptor (human, UniProt P47871 26-477); experiment: [125I]-Gcg competition SPA, hGcgR membranes
T3 construct: whole, on cells; also called hGcgR; GcgR
T3 sequence (P47871 26-477): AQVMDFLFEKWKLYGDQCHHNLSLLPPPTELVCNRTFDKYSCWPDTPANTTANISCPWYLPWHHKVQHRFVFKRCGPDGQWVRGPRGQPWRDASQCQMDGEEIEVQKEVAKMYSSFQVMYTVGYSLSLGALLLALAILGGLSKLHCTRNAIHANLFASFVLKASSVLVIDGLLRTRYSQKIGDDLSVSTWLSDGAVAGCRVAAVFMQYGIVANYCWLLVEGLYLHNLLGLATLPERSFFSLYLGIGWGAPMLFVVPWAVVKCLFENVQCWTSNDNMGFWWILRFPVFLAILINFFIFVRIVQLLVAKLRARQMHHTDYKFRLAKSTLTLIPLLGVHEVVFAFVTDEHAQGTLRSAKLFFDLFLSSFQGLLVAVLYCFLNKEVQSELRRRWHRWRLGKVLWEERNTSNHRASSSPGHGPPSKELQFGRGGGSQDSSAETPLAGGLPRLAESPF

Binder | Ki (human GIP receptor) [nM] | Ki (human GLP-1 receptor) [nM] | Ki (human glucagon receptor) [nM]
B1 | 0.444 | 3.33 | –
B2 | 0.181 | 4.12 | –
B3 | 0.365 | 2.75 | 544
B4 | 0.0374 | 13.3 | –
B5 | 0.0507 | 14.8 | –
B6 | 0.0457 | 2.63 | –
B7 | 0.129 | 15.4 | –
B8 | 0.0978 | 2.76 | 205
B9 | 0.0394 | 3.03 | 440
B10 | 0.042 | 4.68 | 494
B11 | 0.0831 | 3.23 | –
B12 | 0.136 | 3.98 | –
B13 | 0.0851 | 11.4 | –
